Assay results reported in PMC3254608, “Inscuteable Regulates the Pins-Mud Spindle Orientation Pathway” (PLoS ONE, 2012).
Each block holds one binder with its values, some of them ahead of it.

What was measured:
[1] = molecular target: T1, Pins TPR (residues 42-398), soluble (Drosophila, UniProt Q9VB22 42-398); assay: fluorescence polarisation; fluorescence anisotropy, competition: Inscuteable added to a pre-formed complex of 100 nM TMR-Mud and 1 uM Pins, binding buffer, 20°C; conditions: both partners purified
T1 construct: Partner of Inscuteable (Pins), Drosophila, residues 42-398, the TPR domain; it may be a hexahistidine fusion (pBH vector); also called Pins TPRs; source: E. coli BL21(DE3), purified
T1 sequence (looked up): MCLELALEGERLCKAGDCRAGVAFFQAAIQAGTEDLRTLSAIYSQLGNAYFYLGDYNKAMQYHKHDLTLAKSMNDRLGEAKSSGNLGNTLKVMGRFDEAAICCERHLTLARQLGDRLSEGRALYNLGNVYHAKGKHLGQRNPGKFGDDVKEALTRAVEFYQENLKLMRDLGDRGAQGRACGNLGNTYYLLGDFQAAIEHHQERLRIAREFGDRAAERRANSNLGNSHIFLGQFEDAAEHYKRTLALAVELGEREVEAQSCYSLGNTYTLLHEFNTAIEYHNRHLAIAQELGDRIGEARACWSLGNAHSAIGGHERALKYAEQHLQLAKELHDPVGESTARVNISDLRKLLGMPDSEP

[2] = molecular target: TMR-Mud peptide (Mud residues 1955-1970 with an NH2-terminal cysteine, labelled with tetramethylrhodamine) (Drosophila); assay: fluorescence polarisation; fluorescence anisotropy, direct titration: constant 100 nM TMR-Mud, increasing ligand, binding buffer, 20°C, fit to 1:1 binding

Kd [1]: 5 µM
B1: MBP-fusion of the central Ankyrin-repeat containing domain of Inscuteable (residues 252-600) (domain or fragment, Drosophila, UniProt Q24367 252-600, looked up)
chain: APPPYNNETVTFGATEQDESLQQQPSPLRVRSLRFTASTSTPKSGSKIAKRGKKHPEPVASWMSEQRWAGEPEVMCTLQHKSIAQEAYKNYTITTSAVCKLVRQLQQQALSLQVHFERSERVLSGLQASSLPEALAGATQLLSHLDDFTATLERRGVFFNDAKIERRRYEQHLEQIRTVSKDTRYSLERQHYINLESLLDDVQLLKRHTLITLRLIFERLVRVLVISIEQSQCDLLLRANINMVATLMNIDYDGFRSLSDAFVQNEAVRTLLVVVLDHKQSSVRALALRALATLCCAPQAINQLGSCGGIEIVRDILQVESAGERGAIERREAVSLLAQITAAWHGSEH
notes: Inscuteable (Insc), Drosophila, residues 252-600, including the central Ankyrin-repeat containing region; pMAL-c2 based vector; also called MBP-Insc; source: E. coli BL21(DE3), purified (amylose resin)

Kd [2]: 1.1 µM
B2: Pins TPR (residues 42-398), soluble (domain or fragment)
chain: T1 sequence (looked up)
